From patent publication US8840891 (RSR, dated 2014)

Columns and labels:
[1] = target: TSHR Asp151Ala expressed in CHO cells (human) (UniProt P16473); experiment: cell-based or functional assay
[2] = target: TSHR I568T (activating mutation) expressed in CHO cells (human) (UniProt P16473); experiment: cell-based or functional assay
[3] = target: TSHR Lys183Ala expressed in CHO cells (human) (UniProt P16473); experiment: cell-based or functional assay
[4] = target: TSHR with Asp43 mutated to Alanine expressed on CHO cells (human) (UniProt P16473); experiment: cell-based or functional assay
[5] = target: TSHR with Glu107 mutated to Alanine expressed on CHO cells (human) (UniProt P16473); experiment: cell-based or functional assay
[6] = target: TSHR with activating mutation A623I expressed on CHO cells (human) (UniProt P16473); experiment: cell-based or functional assay
[7] = target: TSHR with activating mutation I568T expressed on CHO cells (human) (UniProt P16473); experiment: cell-based or functional assay
[8] = target: human TSHR (wild type) expressed in CHO cells (human) (UniProt P16473); experiment: cell-based or functional assay
[9] = target: TSHR with Tyr185 mutated to Alanine expressed on CHO cells (human) (UniProt P16473); experiment: cell-based or functional assay
[10] = target: wild type human TSHR (thyrotropin receptor) expressed on CHO cells (human) (UniProt P16473); experiment: cell-based or functional assay
[11] = target: TSHR coated on ELISA plate wells (RSR Ltd) (human) (UniProt P16473); experiment: ELISA on TSHR-coated wells, 5C9 IgG-biotin binding with HBD pool (no competitor)

- % inhibition of TSH stimulation of cyclic AMP; 5C9 IgG 1 µg/mL [1]: 49%
- % inhibition of basal cyclic AMP activity; 5C9 IgG 1 µg/mL [2]: 83%
- % inhibition of TSH stimulation of cyclic AMP; 5C9 IgG 1 µg/mL [3]: 28%
- % inhibition of TSH stimulation of cyclic AMP; 5C9 IgG 100 µg/mL [3]: 43%
- Cyclic AMP produced; 5C9 0.01 µg/mL + TSH (fmol/cell well) [4]: 12700
- Cyclic AMP produced; 5C9 0.1 µg/mL + TSH (fmol/cell well) [4]: 6730
- Cyclic AMP produced; 5C9 1.0 µg/mL + TSH (fmol/cell well) [4]: 471
- Cyclic AMP produced; 5C9 10 µg/mL + TSH (fmol/cell well) [4]: 119
- Cyclic AMP produced; 5C9 100 µg/mL + TSH (fmol/cell well) [4]: 31
- Cyclic AMP produced; 5C9 100 µg/mL only (fmol/cell well) [4]: 206
- Mutated/wild type (%); 5C9 0.01 µg/mL + TSH [4]: 97%
- Mutated/wild type (%); 5C9 0.1 µg/mL + TSH [4]: 86%
- Mutated/wild type (%); 5C9 1.0 µg/mL + TSH [4]: 23%
- Mutated/wild type (%); 5C9 10 µg/mL + TSH [4]: 39%
- Mutated/wild type (%); 5C9 100 µg/mL + TSH [4]: 37%
- Mutated/wild type (%); 5C9 100 µg/mL only [4]: 438%
- Cyclic AMP produced; Experiment 1; 5C9 0.01 µg/mL + TSH (fmol/cell well) [5]: 15000
- Cyclic AMP produced; Experiment 1; 5C9 0.1 µg/mL + TSH (fmol/cell well) [5]: 5780
- Cyclic AMP produced; Experiment 1; 5C9 1.0 µg/mL + TSH (fmol/cell well) [5]: 394
- Cyclic AMP produced; Experiment 1; 5C9 10 µg/mL + TSH (fmol/cell well) [5]: 449
- Cyclic AMP produced; Experiment 1; 5C9 100 µg/mL + TSH (fmol/cell well) [5]: 203
- Cyclic AMP produced; Experiment 1; 5C9 100 µg/mL only (fmol/cell well) [5]: 462
- Cyclic AMP produced; Experiment 2; 5C9 0.01 µg/mL + TSH (fmol/cell well) [5]: 21000
- Cyclic AMP produced; Experiment 2; 5C9 0.1 µg/mL + TSH (fmol/cell well) [5]: 1540
- Cyclic AMP produced; Experiment 2; 5C9 1.0 µg/mL + TSH (fmol/cell well) [5]: 28
- Cyclic AMP produced; Experiment 2; 5C9 10 µg/mL + TSH (fmol/cell well) [5]: 321
- Cyclic AMP produced; Experiment 2; 5C9 100 µg/mL + TSH (fmol/cell well) [5]: 64
- Cyclic AMP produced; Experiment 2; 5C9 100 µg/mL only (fmol/cell well) [5]: 408
- Mutated/wild type (%); Experiment 1; 5C9 0.01 µg/mL + TSH [5]: 88%
- Mutated/wild type (%); Experiment 1; 5C9 0.1 µg/mL + TSH [5]: 97%
- Mutated/wild type (%); Experiment 1; 5C9 1.0 µg/mL + TSH [5]: 37%
- Mutated/wild type (%); Experiment 1; 5C9 10 µg/mL + TSH [5]: 91%
- Mutated/wild type (%); Experiment 1; 5C9 100 µg/mL + TSH [5]: 105%
- Mutated/wild type (%); Experiment 1; 5C9 100 µg/mL only [5]: 36%
- Mutated/wild type (%); Experiment 2; 5C9 0.01 µg/mL + TSH [5]: 113%
- Mutated/wild type (%); Experiment 2; 5C9 0.1 µg/mL + TSH [5]: 37%
- Mutated/wild type (%); Experiment 2; 5C9 1.0 µg/mL + TSH [5]: 4%
- Mutated/wild type (%); Experiment 2; 5C9 10 µg/mL + TSH [5]: 150%
- Mutated/wild type (%); Experiment 2; 5C9 100 µg/mL + TSH [5]: 27%
- Mutated/wild type (%); Experiment 2; 5C9 100 µg/mL only [5]: 193%
- Cyclic AMP concentration (basal) in the presence of 5C9 IgG (1 µg/mL) (fmol/cell well) [6]: 1910
- inhibition of basal cyclic AMP activity; 5C9 IgG at 1 µg/mL [6]: 49%
- Cyclic AMP concentration (basal) in the presence of 5C9 IgG (1 µg/mL) (fmol/cell well) [7]: 548
- % inhibition of TSH stimulation of cyclic AMP; 5C9 IgG 1 µg/mL; wild type in the Asp151Ala experiment [8]: 88%
- % inhibition of TSH stimulation of cyclic AMP; 5C9 IgG 1 µg/mL; wild type in the Lys183Ala experiment [8]: 84%
- % inhibition of TSH stimulation of cyclic AMP; 5C9 IgG 100 µg/mL; wild type in the Lys183Ala experiment [8]: 93%
- activity in blocking TSH stimulation of cyclic AMP, relative to donor serum IgG [8]: 3900 times
- basal cyclic AMP level relative to cyclic AMP assay buffer; 5C9 IgG 1 µg/mL; CHO cells with approximately 5x10^5 wild type TSHRs per cell [8]: 33%
- cyclic AMP production; 5C9 IgG 0.001 µg/mL + M22 Fab 3 ng/mL (fmol/cell well) [8]: 11600
- cyclic AMP production; 5C9 IgG 0.001 µg/mL + pTSH 3 ng/mL (fmol/cell well) [8]: 14100
- cyclic AMP production; 5C9 IgG 0.001 µg/mL only (fmol/cell well) [8]: 554
- cyclic AMP production; 5C9 IgG 0.01 µg/mL + M22 Fab 3 ng/mL (fmol/cell well) [8]: 9980
- cyclic AMP production; 5C9 IgG 0.01 µg/mL + pTSH 3 ng/mL (fmol/cell well) [8]: 15000
- cyclic AMP production; 5C9 IgG 0.01 µg/mL only (fmol/cell well) [8]: 578
- cyclic AMP production; 5C9 IgG 0.1 µg/mL + M22 Fab 3 ng/mL (fmol/cell well) [8]: 1300
- cyclic AMP production; 5C9 IgG 0.1 µg/mL + pTSH 3 ng/mL (fmol/cell well) [8]: 3920
- cyclic AMP production; 5C9 IgG 0.1 µg/mL only (fmol/cell well) [8]: 404
- cyclic AMP production; 5C9 IgG 1 µg/mL + M22 Fab 3 ng/mL (fmol/cell well) [8]: 956
- cyclic AMP production; 5C9 IgG 1 µg/mL + pTSH 3 ng/mL (fmol/cell well) [8]: 1870
- cyclic AMP production; 5C9 IgG 1 µg/mL only (fmol/cell well) [8]: 376
- cyclic AMP production; 5C9 IgG 10 µg/mL + M22 Fab 3 ng/mL; mean of duplicate samples (fmol/cell well) [8]: 638
- cyclic AMP production; 5C9 IgG 10 µg/mL + pTSH 3 ng/mL (fmol/cell well) [8]: 1030
- cyclic AMP production; 5C9 IgG 10 µg/mL only (fmol/cell well) [8]: 360
- cyclic AMP production; 5C9 IgG 100 µg/mL + M22 Fab 3 ng/mL (fmol/cell well) [8]: 354
- cyclic AMP production; 5C9 IgG 100 µg/mL + pTSH 3 ng/mL (fmol/cell well) [8]: 1090
- cyclic AMP production; 5C9 IgG 100 µg/mL only (fmol/cell well) [8]: 426
- cyclic AMP; 5C9 IgG 0.01 µg/mL + pTSH (3 ng/mL) (fmol/cell well) [8]: 19000
- cyclic AMP; 5C9 IgG 0.02 µg/mL + pTSH (3 ng/mL) (fmol/cell well) [8]: 16400
- cyclic AMP; 5C9 IgG 0.04 µg/mL + pTSH (3 ng/mL) (fmol/cell well) [8]: 13900
- cyclic AMP; 5C9 IgG 0.06 µg/mL + pTSH (3 ng/mL); single determination (fmol/cell well) [8]: 13300
- cyclic AMP; 5C9 IgG 0.08 µg/mL + pTSH (3 ng/mL) (fmol/cell well) [8]: 14500
- cyclic AMP; 5C9 IgG 0.1 µg/mL + pTSH (3 ng/mL) (fmol/cell well) [8]: 11900
- cyclic AMP; 5C9 IgG 0.5 µg/mL + pTSH (3 ng/mL) (fmol/cell well) [8]: 4750
- cyclic AMP; 5C9 IgG 1 µg/mL + pTSH (3 ng/mL) (fmol/cell well) [8]: 2210
- cyclic AMP; 5C9 IgG only 1 µg/mL (fmol/cell well) [8]: 141
- cyclic AMP; Example 1; 5C9 IgG 10 µg/mL + TSH (fmol/cell well) [8]: 247
- cyclic AMP; Example 1; 5C9 IgG 100 µg/mL + TSH (fmol/cell well) [8]: 754
- cyclic AMP; Example 1; 5C9 IgG 100 µg/mL only (fmol/cell well) [8]: 237
- cyclic AMP; Example 2; 5C9 IgG 10 µg/mL + TSH (fmol/cell well) [8]: 723
- cyclic AMP; Example 2; 5C9 IgG 100 µg/mL + TSH (fmol/cell well) [8]: 1110
- cyclic AMP; Example 2; 5C9 IgG 100 µg/mL only (fmol/cell well) [8]: 338
- inhibition of cyclic AMP production stimulated by patient serum T3; 5C9 IgG 100 µg/mL [8]: 50%
- Cyclic AMP produced; 5C9 0.01 µg/mL + TSH (fmol/cell well) [9]: 9370
- Cyclic AMP produced; 5C9 0.1 µg/mL + TSH (fmol/cell well) [9]: 4540
- Cyclic AMP produced; 5C9 1.0 µg/mL + TSH (fmol/cell well) [9]: 1200
- Cyclic AMP produced; 5C9 10 µg/mL + TSH (fmol/cell well) [9]: 301
- Cyclic AMP produced; 5C9 100 µg/mL only (fmol/cell well) [9]: 163
- Mutated/wild type (%); 5C9 0.01 µg/mL + TSH [9]: 54%
- Mutated/wild type (%); 5C9 0.1 µg/mL + TSH [9]: 73%
- Mutated/wild type (%); 5C9 1.0 µg/mL + TSH [9]: 72%
- Mutated/wild type (%); 5C9 10 µg/mL + TSH [9]: 63%
- Mutated/wild type (%); 5C9 100 µg/mL only [9]: 133%
- Cyclic AMP produced; 5C9 0.01 µg/mL + TSH (fmol/cell well) [10]: 17300
- Cyclic AMP produced; 5C9 0.1 µg/mL + TSH (fmol/cell well) [10]: 6220
- Cyclic AMP produced; 5C9 1.0 µg/mL + TSH (fmol/cell well) [10]: 1660
- Cyclic AMP produced; 5C9 10 µg/mL + TSH (fmol/cell well) [10]: 481
- Cyclic AMP produced; 5C9 100 µg/mL + TSH (fmol/cell well) [10]: 275
- Cyclic AMP produced; 5C9 100 µg/mL only (fmol/cell well) [10]: 123
- Abs 450 nm [11]: 2.42 Abs 450 nm
B1: 5C9 IgG (human monoclonal autoantibody to the TSHR) (antibody, from another filing, V domains shown)
VH: EVQLVESGGGLIQPGGSLRLSCAASGFTVSSNYMSWVRQAPGKGLEWVSVTYSGGSTSYADSVKGRFTISRDNSKNTLYLQMNSLRAEDTAVYYCARGGRYCSSISCYARSGCDYWGQGTLVTVSS
VL: AIQMTQSPSSLSASVGDRVTITCRASQSISNYLNWYQQKPGKAPKLLIYAASSLQSGVPSRFSGSGSGTDFTLTISSLQPEDFATYYCQQSYSSPSTTFGQGTKLEIK
